Data from publication PMC8509488.
One block for each substance: values may come before it.

Assays:
[1] = target: CgHspB1C145S, CgHspB1 mutant with Cys145 replaced by Ser (Chinese hamster); assay: AUC; sedimentation velocity, 40 °C, 0.5 mg/mL, with DTT
[2] = target: CgHspB1C145S, CgHspB1 mutant with Cys145 replaced by Ser (Chinese hamster); assay: AUC; sedimentation velocity, 40 °C, 0.5 mg/mL, without DTT (series with and without DTT)
[3] = target: CgHspB1S15D, phosphorylation mimic mutant of CgHspB1 (Ser15 replaced with Asp) (Chinese hamster); assay: AUC; sedimentation velocity, Rayleigh interference optics, 40,000 rpm, buffer containing 20% ethylene glycol; 4 °C, 0.1 mg/mL
[4] = target: CgHspB1S15D, phosphorylation mimic mutant of CgHspB1 (Ser15 replaced with Asp) (Chinese hamster); assay: AUC; sedimentation velocity, Rayleigh interference optics, 40,000 rpm, buffer containing 20% ethylene glycol; 4 °C, 0.5 mg/mL
[5] = target: CgHspB1S15D, phosphorylation mimic mutant of CgHspB1 (Ser15 replaced with Asp) (Chinese hamster); assay: AUC; sedimentation velocity, Rayleigh interference optics, 40,000 rpm, buffer containing 20% ethylene glycol; 4 °C, 1.5 mg/mL
[6] = target: CgHspB1S15D, phosphorylation mimic mutant of CgHspB1 (Ser15 replaced with Asp) (Chinese hamster); assay: AUC; sedimentation velocity, Rayleigh interference optics, 40,000 rpm, buffer containing 20% ethylene glycol; 25 °C, 0.5 mg/mL
[7] = target: CgHspB1S15D, phosphorylation mimic mutant of CgHspB1 (Ser15 replaced with Asp) (Chinese hamster); assay: AUC; sedimentation velocity, Rayleigh interference optics, 40,000 rpm, buffer containing 20% ethylene glycol; 25 °C, 1.5 mg/mL
[8] = target: CgHspB1S15D, phosphorylation mimic mutant of CgHspB1 (Ser15 replaced with Asp) (Chinese hamster); assay: AUC; sedimentation velocity, Rayleigh interference optics, 40,000 rpm, buffer containing 20% ethylene glycol; 40 °C, 1.5 mg/mL
[9] = target: CgHspB1S15D, phosphorylation mimic mutant of CgHspB1 (Ser15 replaced with Asp) (Chinese hamster); assay: AUC; sedimentation velocity, Rayleigh interference optics, 40,000 rpm, buffer containing 20% ethylene glycol; 25 °C, 0.1 mg/mL
[10] = target: CgHspB1S15D, phosphorylation mimic mutant of CgHspB1 (Ser15 replaced with Asp) (Chinese hamster); assay: AUC; sedimentation velocity, Rayleigh interference optics, 40,000 rpm, buffer containing 20% ethylene glycol; 40 °C, 0.1 mg/mL
[11] = target: CgHspB1S15D, phosphorylation mimic mutant of CgHspB1 (Ser15 replaced with Asp) (Chinese hamster); assay: AUC; sedimentation velocity, Rayleigh interference optics, 40,000 rpm, buffer containing 20% ethylene glycol; 40 °C, 0.5 mg/mL
[12] = target: HspB1 from Chinese hamster, wild type (CgHspB1WT) (Chinese hamster); assay: AUC; sedimentation velocity, Rayleigh interference optics, 40,000 rpm, buffer containing 20% ethylene glycol; 25 °C, 0.5 mg/mL
[13] = target: HspB1 from Chinese hamster, wild type (CgHspB1WT) (Chinese hamster); assay: AUC; sedimentation velocity, Rayleigh interference optics, 40,000 rpm, buffer containing 20% ethylene glycol; 25 °C, 1.5 mg/mL
[14] = target: HspB1 from Chinese hamster, wild type (CgHspB1WT) (Chinese hamster); assay: AUC; sedimentation velocity, Rayleigh interference optics, 40,000 rpm, buffer containing 20% ethylene glycol; 40 °C, 1.5 mg/mL
[15] = target: CgHspB1 N-terminal deletion mutant (CgHspB1DeltaN), N-terminal 30 amino acids deleted, from pET23b (Chinese hamster); assay: SEC; HPLC-SEC, SB-804HQ gel-filtration column, sample heated at the specified temperature for 30 min, buffer B (50 mM Tris-HCl pH 7.5, 0.1 mM EDTA, 150 mM NaCl) with or without 20% ethylene glycol, 1.0 mL/min

stoichiometry N ([1]; c(s20,w) peak a): 21 | stoichiometry N ([1]; c(s20,w) peak b): 25 | stoichiometry N ([1]; c(s20,w) peak c): 32 | stoichiometry N ([2]; c(s20,w) peak a): 21 | stoichiometry N ([2]; c(s20,w) peak b): 25 | stoichiometry N ([2]; c(s20,w) peak c): 33
Substance: CgHspB1C145S, CgHspB1 mutant with Cys145 replaced by Ser (natural protein)

stoichiometry N [3]: 19 | stoichiometry N [4]: 19 | stoichiometry N [5]: 18 | stoichiometry N [6]: 19 | stoichiometry N [7]: 19 | stoichiometry N [8]: 27 | stoichiometry N [9]: 18 | stoichiometry N [10]: 26 | stoichiometry N [11]: 26
Substance: CgHspB1S15D, phosphorylation mimic mutant of CgHspB1 (Ser15 replaced with Asp) (natural protein)

stoichiometry N ([12]; c(s20,w) peak b): 6 | stoichiometry N ([12]; c(s20,w) peak c): 18 | stoichiometry N ([13]; c(s20,w) peak a): 20 | stoichiometry N ([13]; c(s20,w) peak b): 30 | stoichiometry N ([14]; c(s20,w) peak a): 20 | stoichiometry N ([14]; c(s20,w) peak b): 27 | stoichiometry N ([14]; c(s20,w) peak c): 38
Substance: HspB1 from Chinese hamster, wild type (CgHspB1WT) (natural protein)

stoichiometry N [15]: 6
Substance: CgHspB1 N-terminal deletion mutant (CgHspB1DeltaN), N-terminal 30 amino acids deleted, from pET23b (domain or fragment)
